Patent US20190324040A1

Tests used:
[1] = target: Zika virus (ZIKV), whole virus particles (Zika virus); test: P1F12-ZIKV binding inhibition ELISA (4G2-captured ZIKV); competitor: 1/10 plasma of donor hu004 (ZIKV+)
[2] = target: Zika virus (ZIKV), whole virus particles (Zika virus); test: P1F12-ZIKV binding inhibition ELISA (4G2-captured ZIKV); competitor: 1/10 plasma of donor hu002 (U.S. naive)
[3] = target: Zika virus (ZIKV), whole virus particles (Zika virus); test: P1F12-ZIKV binding inhibition ELISA (4G2-captured ZIKV); competitor: 1/10 plasma of donor FA2002 (YF vaccine)
[4] = target: Zika virus (ZIKV), whole virus particles (Zika virus); test: P1F12-ZIKV binding inhibition ELISA (4G2-captured ZIKV); competitor: 1/10 plasma of donor FA2004 (YF vaccine)
[5] = target: Zika virus (ZIKV), whole virus particles (Zika virus); test: P1F12-ZIKV binding inhibition ELISA (4G2-captured ZIKV); competitor: 1/10 plasma of donor FA2005 (YF vaccine)
[6] = target: Zika virus (ZIKV), whole virus particles (Zika virus); test: P1F12-ZIKV binding inhibition ELISA (4G2-captured ZIKV); competitor: 1/10 plasma of donor FA7006 (YF vaccine)
[7] = target: Zika virus (ZIKV), whole virus particles (Zika virus); test: P1F12-ZIKV binding inhibition ELISA (4G2-captured ZIKV); competitor: 1/10 plasma of donor 12 (naive)
[8] = target: Zika virus (ZIKV), whole virus particles (Zika virus); test: P1F12-ZIKV binding inhibition ELISA (4G2-captured ZIKV); competitor: 1/10 plasma of donor Class 1 (U.S. naive)
[9] = target: Zika virus (ZIKV), whole virus particles (Zika virus); test: P1F12-ZIKV binding inhibition ELISA (4G2-captured ZIKV); competitor: 1/10 plasma of donor Class 2 (U.S. naive)
[10] = target: Zika virus (ZIKV), whole virus particles (Zika virus); test: P1F12-ZIKV binding inhibition ELISA (4G2-captured ZIKV); competitor: 1/10 plasma of donor Class 3 (U.S. naive)
[11] = target: Zika virus (ZIKV), whole virus particles (Zika virus); test: P1F12-ZIKV binding inhibition ELISA (4G2-captured ZIKV); competitor: 1/10 plasma of donor Class 4 (U.S. naive)
[12] = target: Zika virus (ZIKV), whole virus particles (Zika virus); test: P1F12-ZIKV binding inhibition ELISA (4G2-captured ZIKV); competitor: 1/10 plasma of donor Class 5 (U.S. naive)
[13] = target: Zika virus (ZIKV), whole virus particles (Zika virus); test: P1F12-ZIKV binding inhibition ELISA (4G2-captured ZIKV); competitor: 1/10 plasma of donor Class 6 (U.S. naive)
[14] = target: Zika virus (ZIKV), whole virus particles (Zika virus); test: P1F12-ZIKV binding inhibition ELISA (4G2-captured ZIKV); competitor: 1/10 plasma of donor Class 7 (U.S. naive)
[15] = target: Zika virus (ZIKV), whole virus particles (Zika virus); test: P1F12-ZIKV binding inhibition ELISA (4G2-captured ZIKV); competitor: 1/10 plasma of donor Class 8 (U.S. naive)
[16] = target: Zika virus (ZIKV), whole virus particles (Zika virus); test: P1F12-ZIKV binding inhibition ELISA (4G2-captured ZIKV); competitor: 1/10 plasma of donor Class 9 (U.S. naive)
[17] = target: Zika virus (ZIKV), whole virus particles (Zika virus); test: P1F12-ZIKV binding inhibition ELISA (4G2-captured ZIKV); competitor: 1/10 plasma of donor 515 (naive)
[18] = target: Zika virus (ZIKV), whole virus particles (Zika virus); test: P1F12-ZIKV binding inhibition ELISA (4G2-captured ZIKV); competitor: 1/10 plasma of donor Class 10 (U.S. naive)
[19] = target: Zika virus (ZIKV), whole virus particles (Zika virus); test: P1F12-ZIKV binding inhibition ELISA (4G2-captured ZIKV); competitor: 1/10 plasma of donor Class 11 (U.S. naive)
[20] = target: Zika virus (ZIKV), whole virus particles (Zika virus); test: P1F12-ZIKV binding inhibition ELISA (4G2-captured ZIKV); competitor: 1/10 plasma of donor Class 12 (U.S. naive)
[21] = target: Zika virus (ZIKV), whole virus particles (Zika virus); test: P1F12-ZIKV binding inhibition ELISA (4G2-captured ZIKV); competitor: 1/10 plasma of donor Class 13 (U.S. naive)
[22] = target: Zika virus (ZIKV), whole virus particles (Zika virus); test: P1F12-ZIKV binding inhibition ELISA (4G2-captured ZIKV); competitor: 1/10 plasma of donor Class 14 (U.S. naive)
[23] = target: Zika virus (ZIKV), whole virus particles (Zika virus); test: P1F12-ZIKV binding inhibition ELISA (4G2-captured ZIKV); competitor: 1/10 plasma of donor 1255 (naive)
[24] = target: Zika virus (ZIKV), whole virus particles (Zika virus); test: P1F12-ZIKV binding inhibition ELISA (4G2-captured ZIKV); competitor: 1/10 plasma of donor 1261 (naive)
[25] = target: Zika virus (ZIKV), whole virus particles (Zika virus); test: P1F12-ZIKV binding inhibition ELISA (4G2-captured ZIKV); competitor: 1/10 plasma of donor 1273 (naive)

B1: CC17 mAb (P1F12) (antibody, V domains shown)
VH: QVQLVQSGGGLVQPGGSLRLSCAASGFTFSSYWMSWVRQAPGKGLEWVANIKQDGSEKYYVDSVKGRFTISRDNAKNSLYLQMNSLRAEDTAVYYCAGNGWDDSSGYYYRNYYYGMDVWGQGTTVTVSS
VL: DIQMTQSPSSFSASTGDRVTITCRASQGISSYLAWYQQKPGKAPKLLIYAASTLQSGVPSRFSGSGSGTDFTLTISCLQSEDFATYYCQQYYSYPRTFGGGTKVDIK
P1F12-ZIKV inhibition assay (Abs450) [1]: 0.04 Abs450
P1F12-ZIKV inhibition assay (Abs450) [2]: 0.57 Abs450
P1F12-ZIKV inhibition assay (Abs450) [3]: 0.319 Abs450
P1F12-ZIKV inhibition assay (Abs450) [4]: 0.393 Abs450
P1F12-ZIKV inhibition assay (Abs450) [5]: 0.332 Abs450
P1F12-ZIKV inhibition assay (Abs450) [6]: 0.396 Abs450
P1F12-ZIKV inhibition assay (Abs450) [7]: 0.22 Abs450
P1F12-ZIKV inhibition assay (Abs450) [8]: 0.323 Abs450
P1F12-ZIKV inhibition assay (Abs450) [9]: 0.312 Abs450
P1F12-ZIKV inhibition assay (Abs450) [10]: 0.406 Abs450
P1F12-ZIKV inhibition assay (Abs450) [11]: 0.392 Abs450
P1F12-ZIKV inhibition assay (Abs450) [12]: 0.389 Abs450
P1F12-ZIKV inhibition assay (Abs450) [13]: 0.292 Abs450
P1F12-ZIKV inhibition assay (Abs450) [14]: 0.246 Abs450
P1F12-ZIKV inhibition assay (Abs450) [15]: 0.303 Abs450
P1F12-ZIKV inhibition assay (Abs450) [16]: 0.316 Abs450
P1F12-ZIKV inhibition assay (Abs450) [17]: 0.293 Abs450
P1F12-ZIKV inhibition assay (Abs450) [18]: 0.315 Abs450
P1F12-ZIKV inhibition assay (Abs450) [19]: 0.395 Abs450
P1F12-ZIKV inhibition assay (Abs450) [20]: 0.344 Abs450
P1F12-ZIKV inhibition assay (Abs450) [21]: 0.276 Abs450
P1F12-ZIKV inhibition assay (Abs450) [22]: 0.323 Abs450
P1F12-ZIKV inhibition assay (Abs450) [23]: 0.323 Abs450
P1F12-ZIKV inhibition assay (Abs450) [24]: 0.405 Abs450
P1F12-ZIKV inhibition assay (Abs450) [25]: 0.395 Abs450
